In a protein production outcome set (Wang et al. 2014):

Assay: label from the status in PepcDB records

Row | Sequence | protein production
1 | MQDTPQRGQRSKVRWLVAGLMWAAIAINYIDRTVLSAAAPHIQKEFHLSAVEMGVVMSAFFWSYALLQLPAGILADRFGQKKVLGFAVLWWSLATAVTGLATGFKSLVGLRVALGVGEAGAYPSNAGITSRWFPKQERATVAAIFDSGSKLGSAIALPLIAWLLVTFDWKITFTVAGSLGIVWCVVWALVFRDSPAEHEGVNAAELAHIQKGLPPARGADAPAMPWTKLLTHRNVWAMCIGFFMINYNSYFFITWLPTYLVKERGMGLMEMGFMASLPLFVSMFVEVFAGWASDRVYASGRLSLTATRKLFLVIGLVMASSIGLAAFAQSAVVAVILLCIAKSGTTVAASQVWALPADVAPGNTVSMVAGLQNSVSNMGGVVGPIVTGAIVGATGSFIPALVFSAALIGLAILNYLFLLGKVEPIAFEPNPATLNPNSHGRSNADARA | failed
2 | MDNLNVFANEDNQVNGLKRPPPSRVCPRCDSDNTKFCFYNNYSESQPRYFCKNCRRYWTHGGALRNIPVGGSCRKPKRLKVDQSSISEMVSVENQPINHQSFRQTQENNEFVRSFDASSSATVTAVPNHFGYLSELHGVTNLLPIQSFRTMDCLDFGDESFQQGYYDVGSNDLIDNPLINQSIGGYVDNLTSYCINQVEPKLQPRYEHES | failed
3 | MKKKLGLLAMVVALMAIATGCSETGQPITSKSTGIWNEYFVYPLSQLITYFADLFNSNYGLAIVITTLIIRFALLPLMIKQTKSTKAMQALQPEMVKLKEKYSSKDQATQQKLQQEMMQLYQKNGVNPLAGCLPIFVQMPILFAFYHAIMRTAEIKQHSFLWFDLGHADPFYILPVVAAITTFIQQKLAMAGTAGQNPQMAMMLWLMPIMILIFAINFPAALSLYWVVGNIFGIAQMYFIKGPEIKASKAGKAGGSSK | failed
4 | MRFHFFPQPLDRAAWSVFLVALVLTLLLVWGGDRTQAQVREFSWQNRDVGASDRAFILSFNRLMDWSSVATHLRIEPALEGKASWSGRRFAYTLTQPIPYGQTFKVSLEDAVSVPQGKPIKPFQGQFRSRDRVLVYLGSGAEEGRLILYNLTLQQKIFLTPPNLRVFDFQPYPAGDRILFSAGERGEQMGFDPQLYIVTTGLYFNAPDTPRRQAHPAGEISLILDNSEYQNLRFQLANDGSKIVVQRVNRLQPADSSLWLLDENFQPRRLNQAAAGEFRIAPDNQHLIIAQGQGLAIVPLEATNGESNFDFLPQYGMVLDFSRDGRQVAAVKFNPNFSRSLYVVDIFGEHREVLTINGSIIAGQFDPSGQFLYVILTRIEGEGNYREVPYLALLDLKTKELFKLKDFDPQQELYLSLAPDGRTLAIDAVEGREIPAEVDHGDLYSETAPVTPSPRDLVELPPAPPGSPLPPRQLPAQEHQIWLLPLKLDQDKIVVGMPEPLAPGLQARWLP | failed
5 | MDSLVASYASSDEEEDLQPRREAFTVKSSEPSASSLFSAIPQPKELKSSEDGDLGSSSSRGKSSSFLSSLPPPKSSISRKKNPNPSSIPKRVVQIRLPVNPRPSNLDDEDDEEEEKARKKRKQMESASASHDSSVRSFLSAMPAPKSSQTLGALPSLGSGSGRRSNLETETPSIAFPQTDSGISDQQNQSYESFSHSNSETEQIVGVDNYYATGYDGGYETIPSGSSVGYDGSSYGGNTWNGGGFEAMTGLPEAVVAMDSGARRGRRGRNQMPEIVEVKQDELMKNRPRVDQVKSTGIAFGPAYQPVTSSSKGKVSKLHKRKHQITALFMDMKHKESELTERRSRGLLTKAETQAKYGW | failed
6 | MNSSIVNAGIDPQVRESLKSFVGEAIDYANTSGKDAAIAKFNDQNGTFVRGNLYVYAFDYNGTTLALPYQPQLIGTDLSGLQDPYGVNYTKLEHHHHHH | not failed
7 | KVILYARVSSSTQKDELVNQVKYLEEQVKEYDLVITDIGSGLNMKRKGFLKLLRMILNNEVSRVVVAYPDRLVRVGFEILEEVCKAHNCEIVVLNQEDKEEELVEDLMSALVSFSGKLYGMRSHEYEKVKKCAEELKNWKI | not failed
8 | MGHHHHHHSHMAQPLACARGRSQRLVCDPKAASALPDLAPDVFVLRVRLEETGEMFRVANCRGDMTVRELKEELDLMVGIPFNLQRLQYLDEGVLMDDTTLKFHDVVPGGIISLCIWHHDGWTEL | failed
9 | MANETPKRRILVIRIDFLGDMLCTTAFLGALKRRWPDAELHVVANRYNASALDGNPDVHAVHTYVYSRQCERNDRPGRMRAFFDRLRLVRRLRRLRFDLVVVPNGGMHRSSIQLARQLGVKDCRWHDADSEFDDRKPEHVASRPMCHEALSGFRLVPELGRNDLDGLALSVHPDRALLDTWYRLLGARAKPRVGLFVSNKATERRWPADRWCDLGRRLAPFADVIVFRDPAVSAGAGADGDAWRDVNARHVAPSSVAELVAAASLLDAIVSADSAPVHLASALGVPVAALFEDRPEKYRRWHPLGVPHMILRAGATVDAIGVDAVERAVLHLLEKAGQADDATGGALPLPDVTLVVPAVGAIVS | failed
10 | MRPSAPNIWIWKVSNLASDPRETVSGEWYAARSNLSSAARLRHGGTLLLVLDAKDNHVITKAEIKAVEISHRVGTIPREIHFPDGSLFETSDNEGVDRLLGLYLPKRAGFVHRLEQFRPRLIGITAAAVLLAYGTYKLALPAVVELAVAMTPPIVPKIMSASTMQALDQTVFSASELPLEEQNAIRVQFSRIAAHAEGSPEDYKLNFRKGGYIGPNAFALPDGTLVLTDELVELAGGDRQMIIGVLAHEIGHVEYEHSLRQLYRAAGVAGLVMLIAGDVGSAMEDILTQGGGLLALSHSRDAERQADQRSVELMRKADLDPTAIERFFALLEEKLGDKGGTSIISTHPGTPQRRKAIIDYNASLDNKPAGNLEHHHHHH | failed
11 | TEKTKAVETTDVALAIDTLVQNGLKALDEMRQLNQEQVDYIVAKASVAALDAHGELALHAVEETGRGVFEDKATKNLFACEHVVNNMRHTKTVGVIEEDDVTGLTLIAEPVGVVCGITPTTNPTSTAIFKSLISLKTRNPIIFAFHPSAQESSAHAARIVRDAAIAAGAPENCVQWIEQPSIDATNALMNHDGIATILATGGNAMVKAAYSCGKPALGVGAGNVPAYVEKSANIRQAAHDIVMSKSFDNGMVCASE | not failed
12 | MKKWFPALLFSLCVSGESSAWNHNIVFYSLGNVNSYQGGNVVITQRPQFITSWRPGIATVTWNQCNGPEFADGSWAYYREYIAWVVFPKKVMTQNGYPLFIEVHNKGSWSEENTGDNDSYFFLKGYKWDERAFDAGNLCQKPGETTRLTEKFDDIIFKVALPADLPLGDYSVTIPYTSGIQRHFASYLGARFKIPYNVAKTLPRENEMLFLFKNIGGCRPSAQSLEIKHGDLSINSANNHYAAQTLSVSCDVPANIRFMLLRNTTPTYSHGKKFSVGLGHGWDSIVSVNGVDTGETTMRWYKAGTQNLTIGSRLYGESSKIQPGVLSGSATLLMILP | failed
13 | MVFSNSLLSSTTSLTTWANQSSSQSSLSPRYSTWQCVCLRNQKRKPKLYLIPARHFLSTPIDSVSSSSITASRYATSGVSEVQRSTSSNNVTEMEEFEMELQELFNEVKSMVKIGKESDAMDLLRANYVAVKEELDSGLKGIEQAAVLDIIALGYMAVGDLKPVPALLDMINKIVDNLKDSEPLLDSVLMHVGSMYSVIGKFENAILVHQRAIRILENRYGKCNTLLVTPLLGMAKSFASDGKATKAIGVYERTLTILERNRGSESEDLVVPLFSLGKLLLKEGKAAEAEIPFTSIVNIYKKIYGERDGRVGMAMCSLANAKCSKGDANEAVDIYRNALRIIKDSNYMTIDNSILENMRIDLAELLHFVGRGDEGRELLEECLLINERFKGKNHPSMATHLINLAASYSRSKNYVEAERLLRTCLNIMEVSVGSEGQSITFPMLNLAVTLSQLNRDEEAEQIALKVLRIREKAFGEDSLPVGEALDCLVSIQARLGRDDGEILGLLKRVMMIQEKEFGPSAQELIVTLQKIIHFLEKLEMKDDKFKFRRRLALLRERYKQSLSY | failed
14 | MRMKRFLTIVQILLVVIIIIFGYKIVQTYIEDKQERANYEKLQQKFQMLMSKHQEHVRPQFESLEKINKDIVGWIKLSGTSLNYPVLQGKTNHDYLNLDFEREHRRKGSIFMDFRNELKNLNHNTILYGHHVGDNTMFDVLEDYLKQSFYEKHKIIEFDNKYGKYQLQVFSAYKTTTKDNYIRTDFENDQDYQQFLDETKRKSVINSDVNVTVKDKIMTLSTCEDAYSETTKRIVVVAKIIKVS | not failed
15 | AESESFVLDFSQPSADYLDFRNRLQADHVCLENCVLKDKAIAGTVKVQNLAFEKTVKIRMTFDTWKSYTDFPCQYVKDTYAGSDRDTFSFDISLPEKIQSYERMEFAVYYECNGQTYWDSNRGKNYRIIRAELKSTQGMTKPHSGPDLG | not failed
16 | MKEVTPRFVELGQVSAIRTEPEIAYRSNQGVTRQRQQTKVFKLVSTYDKVAVKNAIRAAYRQVFERDLEPYIINSEFTALESKLSNNEINVKEFIEGLGTSELYMKEFYAPYPNTKVIEMGTKHFLGRAPLNQKEIQQYNQILASQGLKAFIGAMVNGMEYLQTFGEDTVPYRRFPTLPAANFPNTERLYNKLEHHHHHH | not failed
17 | MLVSEMHGEVEAVKVGTEVQGRVLHWVYLYYYRNLLFDAGCPNTAQEVFEHFKGREIKAVLITHYHEDHIGAVNLFKEITDVYVPEESLEILRNPPDIPKYRKIGWGQPEKIEGVKVAKEVMKFDDVEVRMIKTPGHSFDHVSYLVDDKLFCGDLVINTAQMVCMREENLLKTIESIEKVLKYDFNYAYTGVGVASRDEVVEYLNYLKGLKEKAEMLYAEGKTIDEIVAACFPNPSQKAILMEFVSEKEWARENMVKSLLGLPRE | failed
18 | MGQNQFRWSNEQLREHVEVIDGTRSPHIVLRNATYLNSYIREWMQANIWIYDDRIIYVGEKLPEQLHECEVIDCDGKYVVPSYIEPHAHPYQLYNPETLANHAMQFGTTTFINDNLTLFFTLKRELEHHHHHH | failed
19 | MSEPRLPERAEWGTFALILACYGAWLAVIFGLAGLSLWLAIAAMGLVAALHSSLTHEALHGHPFRYRWLNEALMALPLTLCIPYNRFRDLHLAHHLDANLTDPYDDPESNYLDPAIWSRLPGWQRRLYALNNTLAGRMVLGPLIGTACFLRDEARGALRGDRAILLAWALHLPGMAGVLWVVSLSPMPIWAFALSAYIGLGLLKIRTFLEHRAHEKSRARTVVIEDRGLLAFLFLNNNYHVVHHMNPGAPWYALPALYRAGKERYLGCNEGYSYRSYGEVFRRYFWRAKDPVPHPLWPKP | failed
20 | MAVKFFGQFLVEKGVVSRETLLQAIELQESVNLSFGATSLAMGILTEADIERIHNAQRIEDLRFGDMAVKLGLLTSEQMMQVLTRQKNTHLYIGEALVKVGSFQADELPKYLEEFKADQAQYATDTVVIPTGVSEPKIWEMVADLSYKMLTRVALLVFRPEPCFVADRVPAMDVYATMDFTGDISGRYFMGVTAATQKKIAKAILKEPNVDNEPKEILDDTVMEFVNVALGNIAAKAAQSGKSMEIAPPEIIEAPDGIQVPDGHKALCFPVCLSDGDRIELAVFIQQLEHHHHHH | not failed
21 | MTHLQGVRHAHRQVTAGVRGLTRHLCMVLVGCSLGLVAAGCTREPSSPTARASHSDAAPATPTASPAPASTPPPAADPSVLRVCADPGNMPLSNKAGEGFQNKIAQVVAEAMGRRLEYEWRTYYQRGLARSTINAGRCDVLMDLNSDFEMGLTTRPLYRSPYVLVTRKGLDLVPTSLDDPALKKLRLGVFQSSPARQALYEHGVSGEVKYLFYDSATAPEEHPGKLVERVAAGELDAAESWGPVAGYYAARNNLGVVPLNTIDDAVLEYSMAWAVARKNAALRDALNTALQQSAAKIDEILRSYHVPLVRCADCIVAGDLASHGPYVTPASAPKSTNAATSSQELAQLQLRIADGADPNQELAHALDAGDALRAAWLLRHGADANQPNLLGEPPLHQAIRNQEPDLVGLLIDAGARLDARDGNGWTALMKAAWGNDADSVQRLLARRAPLDTVSSDGWNALELAVSYADVGVVEALLKAGAKARGANRTGFTPVMFAVPREDPAILDALLKHGADVRGANQAGVTALMLAAASGREATAKRLLAAGADPAARNRDGKTAATLAQERGDAALAALLAPGKRSTTQ | failed
